According to US20250340646A1 (ELPIS BIOPHARMACEUTICALS, published 2025):
Numbering of substitutions follows the chain as printed. In names and notes the source's numbering stands.

T1: recombinant His-tagged human IL-2Rβ (human, UniProt P14784 27-240, limits assumed)
T1 construct: also called IL-2Rβ-HIS; IL-15Rβ-HIS
T1 sequence (looked up): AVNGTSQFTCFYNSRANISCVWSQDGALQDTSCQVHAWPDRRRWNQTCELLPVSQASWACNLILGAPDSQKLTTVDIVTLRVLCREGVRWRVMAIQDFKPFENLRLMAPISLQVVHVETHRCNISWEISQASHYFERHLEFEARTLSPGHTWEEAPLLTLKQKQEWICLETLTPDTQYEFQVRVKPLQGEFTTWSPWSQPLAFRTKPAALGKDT

B1: IL-2/anti-PD-L1 scFv Fc EP290/EP326 (bispecific antibody)
chain 1: not shown
chain 2: QVQLVQSGAEVKKPGSSVKVSCKASGGTFSSYAISWVRQAPGQGLEWMGGIIPIFGTANYAQKFQGRVTITADESTSTAYMELSSLRSEDTAVYYCARDKWYGSAWRGDYWGQGTLVTVSSGGGGSGGGGSGGGGSQSVLTQPPSASGTPGQRVTISCSGSYSNIGSNFVNWYQQLPGTAPKLLIHFNNQRPSGVPDRFSGSRSGTSASLAISGLQSEDEADYFCSTWDDSLKGPIFGGGTKLTVLDKTHTCPPCPAPEAAGGPSVFLFPPKPKDTLMISRTPEVTCVVVDVSHEDPEVKFNWYVDGVEVHNAKTKPREEQYNSTYRVVSVLTVLHQDWLNGKEYKCKVSNKALGAPIEKTISKAKGQPREPQVCTLPPSRDELTKNQVSLSCAVKGFYPSDIAVEWESNGQPENNYKTTPPVLDSDGSFKLVSKLTVDKSRWQQGNVFSCSVMHEALHNHYTQKSLSLSPGK
notes: IL2-Fc knob with 2019EP69-F03 scFv-Fc hole (EP326)
B2: IL-2/anti-PD-L1 scFv Fc EP415/EP326 (bispecific antibody)
chain 1: not shown
chain 2: B1 chain 2
notes: IL2 EP337
B3: IL-2/anti-PD-L1 scFv Fc EP412/EP326 (bispecific antibody)
chain 1: not shown
chain 2: B1 chain 2
notes: IL2 with T3A/K35L/R38D/F42R
B4: IL-2/anti-PD-L1 scFv Fc EP417/EP326 (bispecific antibody)
chain 1: not shown
chain 2: B1 chain 2
notes: IL2 EP339
B5: IL-2/anti-PD-L1 scFv Fc EP297/EP326 (bispecific antibody)
chain 1: not shown
chain 2: B1 chain 2
notes: IL2 EP001
B6: IL-2/anti-PD-L1 scFv Fc EP291/EP326 (bispecific antibody)
chain 1: not shown
chain 2: B1 chain 2
notes: IL2 EP003
B7: IL-2/anti-PD-L1 scFv Fc EP416/EP326 (bispecific antibody)
chain 1: not shown
chain 2: B1 chain 2
notes: IL2 EP338
B8: IL-2/anti-PD-L1 scFv Fc EP414/EP326 (bispecific antibody)
chain 1: not shown
chain 2: B1 chain 2
notes: IL2 EP003 carrying K35L/R38D/F42R
B9: IL-2/anti-PD-L1 scFv Fc EP419/EP326 (bispecific antibody)
chain 1: not shown
chain 2: B1 chain 2
notes: IL2 EP343
B10: 2018EP171-H02 scFv (scFv, V domains shown)
VH: QVQLVQSGAEVKKPGSSVKVSCKASGGTFSSYAISWVRQAPGQGLEWMGGIIPIFGTANYAQKFQGRVTITADESTSTAYMELSSLRSEDTAVYYCARDKGYGSGWRGDYWGQGTLVTVSS
VL: QSVLTQPPSASGTPGQRVTISCSGSYSNIGSNFVNWYQQLPGTAPKLLIHFNNQRPSGVPDRFSGSRSGTSASLAISGLQSEDEADYFCSTWDDSLKGPIFGGGTKLTVL
B11: 2019EP69-E10 scFv (scFv, V domains shown)
VH: B10 VH with Y102F
VL: B10 VL
B12: 2019EP69-F02 scFv (scFv, V domains shown)
VH: B10 VH with G101W
VL: B10 VL
B13: 2019EP69-H10 scFv (scFv, V domains shown)
VH: B10 VH with G101W, Y102F
VL: B10 VL
B14: 2018EP173-H11 scFv (scFv, V domains shown)
VH: QVQLVQSGGGLVKPGGSLRLSCAASGFTFSSYSMNWVRQAPGKGLEWVSSISSSSSYIYYADSVKGRFTISRDNAKNSLYLQMNSLKAEDTAVYYCARDSLQWLALDYWGQGTLVTVSS
VL: QPVLTQPPSVSVAPGETATITCGGNNIGRKSVHWYLQKPGQAPVLVIGHDTDRPSGIPARFSGSNSGNTATLTINRVEAGDEADYYCQVWDTSGHHYVFGTGTKVTVL
notes: not shown: scFv linker and domain order of the library scFv
B15: 2018EP164-F04 scFv (scFv, V domains shown)
VH: QVQLQQWGAGLLKPSETLSLTCAVYGGSFSGYYWSWIRQPPGKGLEWIGEINHSGSTNYNPSLKSRVTISVDTSKNQFSLKLSSVTAADTAVYYCARGRRLRYFDWAAYNWFDPWGQGTLVTVSS
VL: QSALTQDPAVSVALGQTVRITCQGDSLRSHYASWYQQKPGQAPVVVVYDNSDRPSGIPDRFSGSNSGNTATLTISRVEVGDEADYYCQVWDSSSDHYVFGTGTKV
B16: 2018EP161-F08 scFv (scFv, V domains shown)
VH: not shown
VL: DIVMTQSPSSLSASVGDRVTITCRASQTVSTYINWYQQRSGKGPKLLIFDASRLQSGAPSRFSGSGSGTEFTLTITSLQPDDSATYYCQQSYRIPLSFGGGTKVEIR
B17: 2018EP172-F10 scFv (scFv, V domains shown)
VH: B10 VH with V2M
VL: B10 VL with N52D

molecular target: T1, recombinant His-tagged human IL-2Rβ; assay: SPR, Protein A capture, IL-2Rβ-HIS analyte
Description: (§1) The assay was run with Biacore T200 control software version 2.0. For each cycle, 1 μg/mL of anti-hPD-L1/IL-2 was captured for 60 seconds at flow rate of 10 μL/min on flow cell 2 in 1×HBSP buffer on Protein A sensor chip. […] The flow cells were then regenerated with Glycine pH2 for 60 seconds at flow rate of 30 μL/min. […] The specific binding response unit was derived from subtraction of binding to reference flow cell 1 from antibody captured flow cell 2.

Kd [nM]	koff [s⁻¹]	kon [M⁻¹ s⁻¹]	Binder
57.4			B1
6.17			B2
12000			B3
21.9			B4
3.32	0.00854	2.57e+06	B5
1.87			B6
26.5			B7

molecular target: PD-L1 on PD-L1 aAPC/CHOK1 cells (Promega J1250); assay: cell-based or functional assay

NFAT reporter EC50 [nM]	Binder
2.3	B1
3.46	B2
2.61	B3

molecular target: biotinylated PD-L1 (Homo sapiens (Human), UniProt Q9NZQ7 19-238, biotinylated; site not stated); assay: ELISA, anti-human Fc capture, biotinylated PD-L1
Description: A 384 well plate was immobilized with anti-human Fc at final concentration of 2 μg/mL in 1×PBS in total volume of 25 μL per well. The plate was incubated overnight at 4C followed by blocking with 80 μL of superblock per well for 1 hour. […] In between each step, the plate was washed 3 times with 1×PBST in a plate washer. The plate was then developed with 25 μL of TMB substrate for 5 min and stopped by adding 25 μL of 2N sulfuric acid. The plate was read at OD450 nm Biotek plate reader and the binding correlation was plotted with Prism 8.1 software. The ELISA binding assays of the antibodies to IL-2Rα and IL-2Rβ receptors were performed as described in Example 6.

EC50 [nM]	Binder
0.141	B1
0.227	B2
0.156	B3
0.188	B4
0.108	B5
0.246	B6
0.212	B8
0.298	B7
0.206	B9

molecular target: T2, full-length human PD-L1 on K562 cells (human, UniProt Q9NZQ7 19-290); assay: FACS, PD-L1/K562 cells
T2 construct: also called PD-L1/K562; cell surface human PD-L1
Description: (§2) Cells were spun down at 1200 rpm for 5 minutes at 4° C. to remove primary antibodies. Cells were then washed once with 200 μL of full medium per well. […] Samples were spun down at 1200 rpm for 5 minutes at 4° C. and washed twice with 200 μL of 1×PBS per well. Samples were reconstituted in 200 μL of 1×PBS and were read on Attune NxT cytometer.
The production, the binding, and all of the characterization assays for selected affinity matured scFv clones were performed as described above.

EC50 [nM]	Binder
0.25	B10
0.207	B11
2	B12
0.0799	B13

molecular target: T3, PD-L1 biotinylated (PD-1/PD-L1 TR-FRET assay kit, BPS 72038) (Homo sapiens (Human), UniProt Q9NZQ7 19-238, biotinylated; site not stated); assay: HTRF competition, competitor PD-1-Eu
T3 construct: Kit reagent
Description: Briefly, 1× Immuno buffer 1 was made. […] For each well in 384-well plate, serial diluted scFvs and regents were added according to manufacturer's recommended volume. Samples were incubated at room temperature for 1.5 hours then the fluorescent intensity was read with Biotek Neo2 plate reader using manufacture's instrument setting for the assay.

IC50 [nM]	Binder
176	B1
2280	B2
134	B3

molecular target: T1, recombinant His-tagged human IL-2Rβ; assay: ELISA, coated His-tagged IL-2Rβ
Description: For monovalent IL-2 Fc-fusion proteins, recombinant His-tagged human IL-2Rα and IL-2Rβ were added in 25 μL of 1×PBS to wells of 384-well plate and incubated overnight at 4° C. to coat the plates. Plates were washed three times with 0.05% Tween20/1×PBS. Plates were blocked with 100 μL of SuperBlock for 1 hr at RT and then washed 3 times with 0.05% Tween20/1×PBS. IL-2 mutants were diluted in 0.05% Tween 20/1×PBS from 1000 nM to 0 nM and added to plates for 2 hrs at room temperature. Plates were then washed 6 times with 0.05% Tween20/1×PBS. Anti-HisTag-HRP was diluted 1:5000 in 0.05% Tween20/1×PBS and added to plates for 1 hr at RT. Plates were then washed 6 times with 0.05% Tween 20/1×PBS, and TMB was added to develop blue color. Reactions were stopped with 2N […] and light absorbance at 450 nm was read on a BioTek plate reader. Absorbance versus IL-2 concentration is graphed for human IL-2Rα and IL-2Rβ. […]

EC50 [nM]	Binder
4.01	B1
1.33	B2
2.18	B3
0.515	B4
0.43	B5
0.552	B6
0.51	B8
1.24	B7
0.613	B9

molecular target: T2, full-length human PD-L1 on K562 cells; assay: FACS, PD-L1/K562 cells; remark: another data set of the same source
Description: as §2

EC50 [nM]	Binder
5.1	B14
< 1	B15
7.72	B16
0.25	B10
< 1	B17

molecular target: T4, human PD-L1-HIS tagged recombinant protein (human, UniProt Q9NZQ7 19-238); assay: SPR, Protein A capture, PD-L1-HIS analyte
T4 construct: also called hPD-L1-HIS; PD-L1 HIS tagged protein
Description: as §1

Kd [nM]	koff [s⁻¹]	kon [M⁻¹ s⁻¹]	Binder
0.464			B1
0.465			B2
0.593			B3
0.429			B4
0.19	0.000149	782000	B5
0.34			B6
0.39			B7
